The values below come from publication PMC4742278, “BS69/ZMYND11 C-Terminal Domains Bind and Inhibit EBNA2” (PLoS Pathogens, 2016).

Bounds are passed on as bounds.

The subject of assay [1] is cancer cell growth. The following applies: in vitro and in vivo; cited from earlier work. From the text: BS69 (ZMYND11) is an emerging tumor suppressor [19–21] that was originally identified as the Adenovirus protein E1A and EBNA2-interacting protein [22, 23]. […] BS69 contains, in addition to a C-terminal MYND (MYeloid translocation protein 8, Nervy and DEAF-1) domain, an N-terminal Plant Homo Domain (PHD) zinc finger, a Bromo domain and a PWWP domain.

Assay [2] has as its system EBNA2. The assay is described as follows: Confocal immunofluorescence of EBNA2 and BS69 in EBV-infected B cells. The assay is classed as cell-based, Epstein-Barr virus. The following applies: EBV infected B cells at 1 and 3 dpi. As to the method:
5x10^4/per 100 μl primary B cells were cultured in RPMI 1640 supplemented with 15% fetal calf serum (FCS), 2 mM L-glutamine, and penicillin/streptomycin, and aliquoted into a 96-well plate. 100 μL previously purified EBV [52] or PBS (mock infection) was utilized as the inoculum. Cells were collected at 0, 1, 3, 5, and 7 days of post-infection (dpi) and BS69 mRNA expression in virus or mock -infected B cells were determined as the relative expression levels versus GAPDH by quantitative reverse transcription real time PCR (qRT-PCR). For Western blot analysis, a total of 5x10^5 B cells with EBV infection were collected at 0, 1, 4, and 7 dpi, respectively. The primers for BS69 are […] (F) and […] (R), whereas the primers for GAPDH internal control are […] (F) and […] (R). The primers for chromatin immunoprecipitati on assays of the LMP1 promoter and GAPDH promoter control have been described previously. The amount of ChIPed DNA was quantified by real time PCR and represented as % of input DNA. For Immunofluorescence analysis (IFA), cells were fixed in 2% paraformaldehyde (Sigma) and subjected to an immunostaining protocol using antibodies for BS69 (Santa Cruz), and EBNA2 (Santa Cruz). […]

Assay [3] deals with EBNA1-mediated transcriptional activation of OriP-Luc reporter. As to the kind of experiment: OriP-Luc reporter assay (EBNA1-mediated transcription). The following applies: 10 μg EBNA1 expression plasmid, 5 μg OriP-Luc reporter. The assay is classed as cell-based, Epstein-Barr virus. From the text:
(§1) Cell culture and reporter gene assays for EBNA2-mediated transcription activation
(§2) The BS69CC-MYND dual domain, wild-type or the Q546A mutant, were inserted into a pCBS/FLAG mammalian expression vector [54], in which the BS69 fragments are preceded by a FLAG-tag. In the case of the Q546A/W550A BS69CC-MYND expression plasmid, the flanking DNA fragment was subcloned into the pSG5-Flag vector [55]. The EBNA2 expression vector harboring PXLXP1 or PXLXP2 mutations was generated by carrying out the PCR-based mutagenesis protocol provided by the manufactory (Stratagene). In each case, the codons of two prolines were replaced with the codons of alanine simultaneously. For EBNA2-dependent transcription reporter assays, 10 μg of the expression vector of EBNA2 (E2), 5 μg flag-BS69CC- MYND wild type, or Q546A plasmid, and 5 μg LMP1-Luc or Cp-Luc reporter plasmid, and 1 μg CMV-βGal control plasmid were co-transfected into BJAB cells following the protocol as described previously. For the parallel control, 10 μg EBNA1 expression plasmid and 5 μg OriP-Luc reporter plasmid were used instead. Luciferase and β-Gal activities were assayed by Orion L (Berthold). A DNA fragment encoding residues 375–465 of EBNA2 from EBV W91 strain [49] containing CR7 and CR8 of EBNA2 were inserted into pCD-Gal4(1–147) vector to generate pCD-Gal4-EBNA2(375–465), which encodes a GAL4-EBNA2 fusion protein. […]
(A reporter such as luciferase makes a cellular process visible.)

Assay [4] concerns LMP1-DNA (LMP1 promoter). As to the kind of experiment: ChIP at LMP1 promoter DNA in transfected BJAB cells. The assay is classed as cell-based, Epstein-Barr virus. The following applies: M2 ChIP. From the text:
To determine whether BS69CC-MYND is able to associate with EBNA2 target promoters through protein-protein interactions, we performed Chromatin Immunoprecipitation (ChIP) assays using BJAB cells, in which flag-tagged wild-type, Q546A, or […] BS69CC-MYND was co-transfected with or without EBNA2 expression vector and a reporter plasmid containing the LMP1 promoter, LMP1-Luc. […] On the other hand, an EBNA2 ChIP brought down ~13% of LMP1-DNA, consistent with the fact that LMP1 is one of the target sites of EBNA2 [35, 36].
5x10^4/per 100 μl primary B cells were cultured in RPMI 1640 supplemented with 15% fetal calf serum (FCS), 2 mM L-glutamine, and penicillin/streptomycin, and aliquoted into a 96-well plate. […] Cells were collected at 0, 1, 3, 5, and 7 days of post-infection (dpi) and BS69 mRNA expression in virus or mock -infected B cells were determined as the relative expression levels versus GAPDH by quantitative reverse transcription real time PCR (qRT-PCR). […] The amount of ChIPed DNA was quantified by real time PCR and represented as % of input DNA. […]
The transfection-mediated co-immunoprecipitation (Co-IP) assay was employed to identify the physical interaction of EBNA2 with BS69CC-MYND using EBV-negative B lymphoma cells (BJAB). […] The proteins were detected and visualized using an ECL detection kit (Millipore). […]

Assay [5] deals with Cp-Luc reporter, EBNA2-mediated transcriptional activation. The assay is described as follows: Cp-Luc reporter assay (EBNA2-mediated transcription) in BJAB cells. The format is cell-based, Epstein-Barr virus. Conditions: 10 μg EBNA2 vector, 5 μg flag-BS69CC-MYND plasmid, 5 μg reporter.
Description: as §1, §2

Assay [6] has as its system EBNA2. The assay is described as follows: Co-immunoprecipitation of EBNA2 with flag-BS69CC-MYND in BJAB cells. The format is cell-based, Epstein-Barr virus. The following applies: anti-flag M2 IP, Western blot. From the text:
To address whether the BS69 C-terminal domain, if expressed, interacts with EBNA2 in vivo, we ectopically co-expressed flag-tagged wild-type, Q546A, or Q546A/W550A BS69CC-MYND with EBNA2 in BJAB cells, followed by immunoprecipitation using anti-flag M2-conjugated sepharose and Western blotting with antibodies against EBNA2 and M2, respectively. […] In addition, the immunofluorescence (IF) image pointed to a reduction of large amount of BS69 expression in EBV infected B cells at 5 dpi, confirming the barely low expression levels of BS69 shown in Fig 4B.
Co-immunoprecipitation, chromatin immunoprecipitation (ChIP), and western blot analyses
The transfection-mediated co-immunoprecipitation (Co-IP) assay was employed to identify the physical interaction of EBNA2 with BS69CC-MYND using EBV-negative B lymphoma cells (BJAB). Cells were co-transfected with the expression plasmids of EBNA2 (E2) and flag- BS69CC-MYND wild type, Q546A mutant (Q546A), or Q546A/W550A mutant (Q546A/W550A) and subjected to IP analysis using M2-conjugated sepharose (Sigma). […] The proteins were detected and visualized using an ECL detection kit (Millipore). […] The protein levels of endogenous BS69 in the obtained cell lines were determined by Western blot using BS69 antibody (Santa Cruz biotechnology). […] The proteins were detected and visualized using an ECL detection kit (Millipore).
(Immunoblotting shows a protein as a band on a membrane.)

The test system of assay [7] is G5-TK-Luc reporter, Gal4-EBNA2 transcriptional activation. As to the kind of experiment: G5-TK-Luc reporter assay with Gal4-EBNA2 in HeLa cells. The assay is classed as cell-based. Conditions: 10 ng BS69CC-MYND expression vector, relative to no Gal4 activator (set to 1), means of minimum 3 independent experiments each in triplicates.
Description: as §1
The BS69CC-MYND dual domain, wild-type or the Q546A mutant, were inserted into a pCBS/FLAG mammalian expression vector [54], in which the BS69 fragments are preceded by a FLAG-tag. In the case of the Q546A/W550A BS69CC-MYND expression plasmid, the flanking DNA fragment was subcloned into the pSG5-Flag vector [55]. The EBNA2 expression vector harboring PXLXP1 or PXLXP2 mutations was generated by carrying out the PCR-based mutagenesis protocol provided by the manufactory (Stratagene). In each case, the codons of two prolines were replaced with the codons of alanine simultaneously. […]
Supplementary file ppat.1005414.s003.tif: S3 Fig In vivo transcription assays of G5-TK-Luc reporter gene. (A) The expression of Flag-tagged wild-type or Q546A BS69CC-MYND in HeLa cells was analyzed by Western blotting using anti-flag M2 monoclonal antibody. […] (B) Relative transcription activation by GAL4 DBD, Gal4-EBNA2 and Gal4-VP16 was analyzed in transfected HeLa cells in the absence or presence of 10 ng expression vector for wild-type BS69CC-MYND or its Q546A mutant. […]

Assay [8] concerns LMP1-Luc reporter, EBNA2-mediated transcriptional activation. The assay is described as follows: LMP1-Luc reporter assay (EBNA2-mediated transcription) in BJAB cells. The assay is classed as cell-based, Epstein-Barr virus. The following applies: 10 μg EBNA2 vector, 5 μg flag-BS69CC-MYND plasmid, 5 μg reporter.
Description: as §1, §2

B1: BS69: emerging tumor suppressor, Adenovirus protein E1A and EBNA2-interacting protein (protein, UniProt Q15326 1-602, looked up)
Zinc finger MYND …: MARLTKRRQADTKAIQHLWAAIEIIRNQKQIANIDRITKYMSRVHGMHPKETTRQLSLAVKDGLIVETLTVGCKGSKAGIEQEGYWLPGDEIDWETENHDWYCFECHLPGEVLICDLCFRVYHSKCLSDEFRLRDSSSPWQCPVCRSIKKKNTNKQEMGTYLRFIVSRMKERAIDLNKKGKDNKHPMYRRLVHSAVDVPTIQEKVNEGKYRSYEEFKADAQLLLHNTVIFYGADSEQADIARMLYKDTCHELDELQLCKNCFYLSNARPDNWFCYPCIPNHELVWAKMKGFGFWPAKVMQKEDNQVDVRFFGHHHQRAWIPSENIQDITVNIHRLHVKRSMGWKKACDELELHQRFLREGRFWKSKNEDRGEEEAESSISSTSNEQLKVTQEPRAKKGRRNQSVEPKKEEPEPETEAVSSSQEIPTMPQPIEKVSVSTQTKKLSASSPRMLHRSTQTTNDGVCQSMCHDKYTKIFNDFKDRMKSDHKRETERVVREALEKLRSEMEEEKRQAVNKAVANMQGEMDRKCKQVKEKCKEEFVEEIKKLATQHKQLISQTKKKQWCYNCEEEAMYHCCWNTSYCSIKCQQEHWHAEHKRTCRRKR
On to B1, for which the “effect of BS69 overexpression on cancer cell growth” value in assay [1] was “suppresses cancer cell growth both in vitro and in vivo”. For the same molecule, the “colocalization of EBNA2 and BS69” value in assay [2] is “colocalization of EBNA2 and BS69 appeared”. In addition, the “suppression of EBNA1-mediated transcriptional activation of OriP-Luc” value in assay [3] is “failed to suppress”.

B2: BS69CC-MYND: residues 440–562 of BS69/ZMYND11, tandem coiled-coil-MYND domains (protein, UniProt Q15326 440-562, looked up, fragment)
chain: TKKLSASSPRMLHRSTQTTNDGVCQSMCHDKYTKIFNDFKDRMKSDHKRETERVVREALEKLRSEMEEEKRQAVNKAVANMQGEMDRKCKQVKEKCKEEFVEEIKKLATQHKQLISQTKKKQW
modifications: coiled-coil-MYND domain FLAG tag
notes: residues 440–562 of BS69/ZMYND11, tandem coiled-coil-MYND domains
Regarding B2, the “ChIPed LMP1-DNA” value is recorded as 7–8 % over input DNA in assay [4] (absence of EBNA2 (similar to IgG negative control)) and ~ 17% in assay [4] (presence of EBNA2, % of input DNA). Moreover, in assay [5], the “relative transcriptional activation by EBNA2 in presence of BS69CC-MYND, Cp-Luc” value was no more than 2 fold. In assay [6], the EBNA2 co-precipitation entry was “EBNA2 co-precipitates with wild-type flag-tagged BS69CC-MYND”. In addition, the “activation of G5-TK-Luc by Gal4-EBNA2 in presence of BS69CC-MYND” value in assay [7] is “less than 4 fold”. In addition, the “relative transcriptional activation by EBNA2 in presence of BS69CC-MYND, LMP1-Luc” value in assay [8] is recorded as no more than 2 fold.
